Results on 3 molecules are retold here after US20120316071A1 (published 2012).

In assay [1] the target is T1, rHuman CD44/Fc Chimera, CF (R&D Systems Cat#3660-CD) (human, UniProt P16070 21-220).
T1 construct: Bought recombinant protein; Fc part of the bought chimera not given
The assay can be described thus: ECL multispot (MSD) assay, spotted antigen; Fab 200.00 (head prints uM).

Assay [2] has as its target T2, Recombinant Human DLL4 (R&D Systems Cat#1506-D4/CF) (human, UniProt Q9NR61 27-524).
T2 construct: Bought recombinant protein; also called delta-like protein 4
The assay is described as above.

In assay [3] the target is T3, rHuman Notch-1/Fc Chimera, CF (R&D Systems Cat#3647-TK) (human, UniProt P46531 19-526).
T3 construct: Bought recombinant protein; Fc part of the bought chimera not given
The assay is described as above.

Assay [4] addresses T4, rHuman Erythropoietin R/Fc Chimera, CF (R&D Systems Cat#963-ER) (human, UniProt P19235 25-250).
T4 construct: Bought recombinant protein; also called EPO R; EPO R/Fc; Fc part of the bought chimera not given
T4 sequence (looked up): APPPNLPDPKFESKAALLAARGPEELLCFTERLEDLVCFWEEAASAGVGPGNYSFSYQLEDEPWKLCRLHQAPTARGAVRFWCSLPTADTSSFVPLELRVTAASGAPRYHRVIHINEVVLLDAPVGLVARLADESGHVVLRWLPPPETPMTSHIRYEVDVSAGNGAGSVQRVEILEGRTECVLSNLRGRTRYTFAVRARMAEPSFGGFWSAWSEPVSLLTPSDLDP
Described as above.

Assay [5] has as its target T5, rHuman EGF R/Fc Chimera, CF (R&D Systems Cat#344-ER) (human, UniProt P00533 25-645).
T5 construct: Bought recombinant protein; Fc part of the bought chimera not given
Described as above.

For assay [6], the target named is T6, rHuman IGF-1 sR, CF (R&D Systems Cat#391-GR) (human, UniProt P08069 31-932).
T6 construct: Bought soluble receptor; The column head prints only 'IGF-1'; also called insulin-like growth factor-1 soluble receptor
Described as above.

In assay [7] the target is T7, rHuman ErbB2/Fc Chimera, CF (R&D Systems Cat#1129-ER) (human, UniProt P04626 23-652).
T7 construct: Bought recombinant protein; Fc part of the bought chimera not given
The description is as above.

Assay [8] concerns the target T1, rHuman CD44/Fc Chimera, CF (R&D Systems …). The experiment in a line: ECL multispot (MSD) assay, spotted antigen; Fab 2.00 (head prints uM).
The target in assay [9] is T2, Recombinant Human DLL4 (R&D Systems …). The description is as above.
Assay [10] has as its target T3, rHuman Notch-1/Fc Chimera, CF (R&D …). The assay is described as above.
Assay [11] has as its target T4, rHuman Erythropoietin R/Fc Chimera, CF …. The assay is described as above.
Assay [12] addresses T5, rHuman EGF R/Fc Chimera, CF (R&D …). The description is as above.
The target in assay [13] is T6, rHuman IGF-1 sR, CF (R&D Systems …). The description is as above.
Assay [14] concerns the target T7, rHuman ErbB2/Fc Chimera, CF (R&D …). The assay is described as above.
The target of assay [15] is T1, rHuman CD44/Fc Chimera, CF (R&D Systems …). The assay can be described thus: ECL multispot (MSD) assay, spotted antigen; Fab 20.00 (head prints uM).
The target of assay [16] is T2, Recombinant Human DLL4 (R&D Systems …). Described as above.
The target of assay [17] is T3, rHuman Notch-1/Fc Chimera, CF (R&D …). Described as above.
Assay [18] deals with T4, rHuman Erythropoietin R/Fc Chimera, CF …. Described as above.
Assay [19] has as its target T5, rHuman EGF R/Fc Chimera, CF (R&D …). The assay is described as above.
The target in assay [20] is T6, rHuman IGF-1 sR, CF (R&D Systems …). The assay is described as above.
Assay [21] deals with T7, rHuman ErbB2/Fc Chimera, CF (R&D …). The assay is described as above.
For assay [22], the target named is T1, rHuman CD44/Fc Chimera, CF (R&D Systems …). The experiment in a line: ECL multispot (MSD) assay, spotted antigen; Fab 0.20 (head prints uM).
In assay [23] the target is T2, Recombinant Human DLL4 (R&D Systems …). Described as above.
For assay [24], the target named is T3, rHuman Notch-1/Fc Chimera, CF (R&D …). The description is as above.
In assay [25] the target is T4, rHuman Erythropoietin R/Fc Chimera, CF …. The description is as above.
For assay [26], the target named is T5, rHuman EGF R/Fc Chimera, CF (R&D …). The description is as above.
The target of assay [27] is T6, rHuman IGF-1 sR, CF (R&D Systems …). Described as above.
In assay [28] the target is T7, rHuman ErbB2/Fc Chimera, CF (R&D …). Described as above.
The target of assay [29] is T8, Recombinant Human DLL4 (delta-like protein 4) (human, UniProt Q9NR61 27-524).
T8 construct: Bought recombinant human DLL4 (R&D Systems Cat#1506-D4/CF); also called rHuman DLL4; Delta-like 4
The experiment in a line: ECL (MSD electrochemiluminescence) binding assay, Fab on immobilised recombinant human DLL4.

Assay [30] concerns the target T8, Recombinant Human DLL4 (delta-like …). The assay can be described thus: ELISA, Fab on coated recombinant human DLL4, signal minus noise.
The target of assay [31] is T9, rHuman P-Cadherin/Fc Chimera, CF (R&D Systems Cat#861-PC) (human, UniProt P22223 108-654).
T9 construct: Bought recombinant Fc chimera; Fc part of the bought chimera not given
The assay can be described thus: MSD Multispot ECL, antigen spotted on plate, Fab in solution; blank spot of the row 240.

Assay [32] deals with T10, rHuman Notch-1/Fc Chimera, CF (R&D Systems Cat#3647-TK) (human, UniProt P46531 19-526).
T10 construct: Bought recombinant Fc chimera; Fc part of the bought chimera not given
The assay is described as above.

Assay [33] deals with T11, rHuman HGF R/c-MET/Fc Chimera, CF (R&D Systems Cat#358-MT/CF) (human, UniProt P08581 25-932).
T11 construct: Bought recombinant Fc chimera; also called HGF R/Fc; hepatocyte growth factor receptor; Fc part of the bought chimera not given
The description is as above.

The target of assay [34] is T12, rHuman Erythropoietin R/Fc Chimera, CF (R&D Systems Cat#963-ER) (human, UniProt P19235 25-250).
T12 construct: Bought recombinant Fc chimera; also called EPO R; EPO R/Fc; Fc part of the bought chimera not given
T12 sequence (looked up): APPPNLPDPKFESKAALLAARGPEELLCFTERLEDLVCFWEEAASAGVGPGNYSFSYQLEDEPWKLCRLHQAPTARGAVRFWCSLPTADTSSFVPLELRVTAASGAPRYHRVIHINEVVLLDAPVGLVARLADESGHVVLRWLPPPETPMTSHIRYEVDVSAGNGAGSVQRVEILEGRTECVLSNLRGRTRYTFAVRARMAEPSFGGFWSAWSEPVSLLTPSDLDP
The description is as above.

In assay [35] the target is T13, rHuman EGF R/Fc Chimera, CF (R&D Systems Cat#344-ER) (human, UniProt P00533 25-645).
T13 construct: Bought recombinant Fc chimera; also called epidermal growth factor receptor; Fc part of the bought chimera not given
The description is as above.

T11 sequence (P08581 25-932, change not shown): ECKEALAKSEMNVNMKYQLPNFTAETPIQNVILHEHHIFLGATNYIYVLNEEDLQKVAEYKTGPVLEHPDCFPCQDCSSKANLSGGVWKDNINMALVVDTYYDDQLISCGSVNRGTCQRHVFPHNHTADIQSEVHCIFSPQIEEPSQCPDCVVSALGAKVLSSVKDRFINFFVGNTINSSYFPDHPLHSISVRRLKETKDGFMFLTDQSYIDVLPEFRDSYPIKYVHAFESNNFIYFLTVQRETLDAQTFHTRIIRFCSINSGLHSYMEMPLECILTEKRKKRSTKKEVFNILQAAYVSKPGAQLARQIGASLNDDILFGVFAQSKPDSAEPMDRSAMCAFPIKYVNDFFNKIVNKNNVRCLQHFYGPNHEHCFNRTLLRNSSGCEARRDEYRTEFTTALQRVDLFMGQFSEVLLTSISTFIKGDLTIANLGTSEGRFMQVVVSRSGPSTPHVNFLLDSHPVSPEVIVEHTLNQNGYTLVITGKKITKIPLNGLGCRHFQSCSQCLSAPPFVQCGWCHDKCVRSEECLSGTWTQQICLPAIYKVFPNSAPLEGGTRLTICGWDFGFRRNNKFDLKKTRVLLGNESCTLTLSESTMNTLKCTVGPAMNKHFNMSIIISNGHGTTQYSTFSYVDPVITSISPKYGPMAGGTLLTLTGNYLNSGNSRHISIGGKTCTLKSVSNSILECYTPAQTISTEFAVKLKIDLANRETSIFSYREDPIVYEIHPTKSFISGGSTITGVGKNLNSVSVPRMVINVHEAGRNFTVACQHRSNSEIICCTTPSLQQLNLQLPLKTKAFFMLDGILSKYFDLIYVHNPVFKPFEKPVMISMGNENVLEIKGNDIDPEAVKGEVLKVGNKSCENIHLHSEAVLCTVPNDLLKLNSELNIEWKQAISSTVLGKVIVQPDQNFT

B1: Fab VH5-51_IGHD5-18*01>3_IGHJ4*01 & V3-4_IGLJ1*01 (Fab, V domains shown)
VH: EVQLVQSGAEVKKPGESLKISCKGSGYSFTSYWIGWVRQMPGKGLEWMGIIYPGDSDTRYSPSFQGQVTISADKSISTAYLQWSSLKASDTAMYYCARRGYSYGYDYFDYWGQGTLVTVSS
VL: QTVVTQEPSFSVSPGGTVTLTCGLSSGSVSTSYYPSWYQQTPGQAPRTLIYSTNTRSSGVPDRFSGSILGNKAALTITGAQADDESDYYCVLYMGSGISYVFGTGTKVTVL
notes: Tested as a Fab made in E. coli; The heavy chain vector (Plasmid A) adds CH1 with His6 and Flag tags, and the lambda light chain vector (Plasmid E) adds CL; also called Wt; wildtype
As to B1, the ECL signal/noise ratio in [1] was found to be 1.6; in assay [2], 36.3; in [3] it was 1.3; in assay [4] it was 2.2; in [5], 2.9; in assay [6] it was 2.8. Moreover, the ECL signal/noise ratio came to 3.1 in assay [7]; 1.1 in [8]; 2.2 in assay [9]; 1.5 in [10]; 1.2 in assay [11]; 1.1 in [12]. Further, the ECL signal/noise ratio in [13] turned out to be 1.6; in assay [14], 1.8; in [15], 2.6; in assay [16], 21.1; in assay [17], 1.6; in assay [18] it was 2. In addition, the ECL signal/noise ratio was 2.5 in assay [19]; 1.8 in assay [20]; 4.4 in assay [21]; 1.4 in [22]; 3 in assay [23]; 1.7 in assay [24]. The ECL signal/noise ratio in assay [25] was found to be 2.5; in assay [26], 3.4; in assay [27], 2.9; in assay [28], 2.6.

B2: Fab VH5-51_IGHD5-18*01>3_IGHJ4*01 G100K/G104T/T58A & V3-4_IGLJ1*01 (Fab, V domains shown)
VH: EVQLVQSGAEVKKPGESLKISCKGSGYSFTSYWIGWVRQMPGKGLEWMGIIYPGDSDARYSPSFQGQVTISADKSISTAYLQWSSLKASDTAMYYCARRKYSYTYDYFDYWGQGTLVTVSS
VL: QTVVTQEPSFSVSPGGTVTLTCGLSSGSVSTSYYPSWYQQTPGQAPRTLIYSTNTRSSGVPDRFSGSILGNKAALTITGAQADDESDYYCVLYMGSGISYVFGTGTKVTVL
notes: Fab expressed in E. coli: VH joined to CH1 (Plasmid A, His6 and Flag tags), VL joined to lambda CL (Plasmid E); also called H:KT T58A
Consider B2, for which, in assay [29], the “ECL signal” value was determined as 12900. In addition, in [30], the “ELISA (Signal-Noise)” value came out at 0.07.

B3: Fab VH5-51_IGHD5-18*01>3_IGHJ4*01 G100K/G104T W33A & V3-4_IGLJ1*01 (Fab, V domains shown)
VH: EVQLVQSGAEVKKPGESLKISCKGSGYSFTSYAIGWVRQMPGKGLEWMGIIYPGDSDTRYSPSFQGQVTISADKSISTAYLQWSSLKASDTAMYYCARRKYSYTYDYFDYWGQGTLVTVSS
VL: QTVVTQEPSFSVSPGGTVTLTCGLSSGSVSTSYYPSWYQQTPGQAPRTLIYSTNTRSSGVPDRFSGSILGNKAALTITGAQADDESDYYCVLYMGSGISYVFGTGTKVTVL
notes: Fab made in E. coli; VH cloned into Plasmid A (CH1, His6 and Flag tags), lambda VL into Plasmid E (lambda CL); also called KT W33A
As for B3, the ECL signal was 302 in assay [31]; 561 in [32]; 735 in assay [33]; 424 in [34]; 761 in [35].
